Results from publication PMC3482342.

Columns and labels:
MukE (Escherichia coli) = MukE (Escherichia coli) (UniProt P22524); conditions: cited from earlier work
[1] = molecular target: MukE-LLFR (MukE-L38S/L41A/F185S/R186E) (E. coli) (UniProt P22524); assay: AUC

MukE, sequence (P22524 whole entry): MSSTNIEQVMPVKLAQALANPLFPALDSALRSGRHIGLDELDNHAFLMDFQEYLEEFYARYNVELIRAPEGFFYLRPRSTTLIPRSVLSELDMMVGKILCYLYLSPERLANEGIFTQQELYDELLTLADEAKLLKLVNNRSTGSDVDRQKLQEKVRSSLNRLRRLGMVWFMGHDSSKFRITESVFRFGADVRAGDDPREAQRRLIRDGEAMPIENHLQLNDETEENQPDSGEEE

| Kd [1] [µM] | Substance | Kd (MukE (Escherichia coli)) [µM] |
| --- | --- | --- |
|  | MukE (from UniProt P22524) | 18 |
| 450 | MukE-LLFR (MukE-L38S/L41A/F185S/R186E) (from UniProt P22524 10-234) (natural protein) |  |
